Target: T1, CBP Full-HAT domain (central core catalytic region), 6His-tagged (mouse, UniProt P45481 1096-1700)
T1 sequence (looked up): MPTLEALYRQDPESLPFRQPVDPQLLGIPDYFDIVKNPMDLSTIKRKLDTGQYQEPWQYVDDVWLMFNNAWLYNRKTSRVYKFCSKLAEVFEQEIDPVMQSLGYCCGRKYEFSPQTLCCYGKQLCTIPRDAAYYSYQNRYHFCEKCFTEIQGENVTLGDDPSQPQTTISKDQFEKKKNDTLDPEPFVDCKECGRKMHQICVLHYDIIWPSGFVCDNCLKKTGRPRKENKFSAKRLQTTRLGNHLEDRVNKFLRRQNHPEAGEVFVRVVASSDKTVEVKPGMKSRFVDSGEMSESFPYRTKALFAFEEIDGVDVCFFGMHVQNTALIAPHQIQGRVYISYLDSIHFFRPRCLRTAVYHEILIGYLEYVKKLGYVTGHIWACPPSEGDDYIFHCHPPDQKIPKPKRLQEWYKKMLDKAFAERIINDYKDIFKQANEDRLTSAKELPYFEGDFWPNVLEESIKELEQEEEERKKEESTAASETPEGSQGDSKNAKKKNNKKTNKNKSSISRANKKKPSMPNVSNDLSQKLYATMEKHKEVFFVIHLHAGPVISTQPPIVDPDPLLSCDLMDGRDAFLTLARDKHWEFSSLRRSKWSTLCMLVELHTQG
Assay: BLI

Kd: 1 nM
B1: biotinylated recombinant full-length HSF2 (natural protein, UniProt Q03933 1-536, looked up)
chain: MKQSSNVPAFLSKLWTLVEETHTNEFITWSQNGQSFLVLDEQRFAKEILPKYFKHNNMASFVRQLNMYGFRKVVHIDSGIVKQERDGPVEFQHPYFKQGQDDLLENIKRKVSSSKPEENKIRQEDLTKIISSAQKVQIKQETIESRLSELKSENESLWKEVSELRAKHAQQQQVIRKIVQFIVTLVQNNQLVSLKRKRPLLLNTNGAQKKNLFQHIVKEPTDNHHHKVPHSRTEGLKPRERISDDIIIYDVTDDNADEENIPVIPETNEDVISDPSNCSQYPDIVIVEDDNEDEYAPVIQSGEQNEPARESLSSGSDGSSPLMSSAVQLNGSSSLTSEDPVTMMDSILNDNINLLGKVELLDYLDSIDCSLEDFQAMLSGRQFSIDPDLLVDLFTSSVQMNPTDYINNTKSENKGLETTKNNVVQPVSEEGRKSKSKPDKQLIQYTAFPLLAFLDGNPASSVEQASTTASSEVLSSVDKPIEVDELLDSSLDPEPTQSKLVRLEPLTEAEASEATLFYLCELAPAPLDSDMPLLDS
modifications: biotinylated with EZ-Link NHS-PEG4-Biotin at a molar ratio biotin/protein 3:1

— article doi:10.1101/481457 (bioRxiv, 2019)
